Data published in article PMC7380208.

Molecular target: Flt3 Receptor Interacting Lectin (FRIL) from Lablab purpureus (Lablab purpureus) (UniProt Q9ZTA9)
Test: SEC-MALS

“Flt3 Receptor Interacting Lectin (FRIL) from Lablab purpureus (from UniProt Q9ZTA9) (natural protein)” gave a stoichiometry N of 4.
